± gives the uncertainty stated by the source.
Test: self-splicing fitness, log relative to wild type (ln ratio); higher = more splicing; Tetrahymena group I intron in knt gene, E. coli kanamycin selection, DiMSum; sequences stand for … in CUCUCU…GGAGGGAAAAGUUAUCAGGCAUGCACCUGGUAGCUAGUCUUUAAACCAAUAGAUUGCAUCGGUUUAAAAGGCAAGACCGUCAAAUUGCGGGAAAGGGGUCAACAGCCGUUCAGUACCAAGUCUCAGGGGAAACUUUGAGAUGGCCUUGCAAAGGGUAUGGUAAUAAGCUGACGGACAUGGUCCUAACCACGCAGCCAAGUCCUAAGUCAACAGAUCUUCUGUUGAUAUGGAUGCAGUUCACAGACUAAAUGUCGGUCGGGGAAGAUGUAUUCUUCUCAUAAGAUAUAGUCGGACCUCUCCUUAAUGGGAGCUAGCGGAUGAAGUGAUGCAACACUGGAGCCGCUGGGAACUAAUUUGUAUGCGAAAGUAUAUUGAUUAGUUUUGGAGUACUCGUGGUCG
How it was run: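 A randomised library covering all eight P1ex-region intron nucleotides was built with the intron in the knt kanamycin-resistance gene on pET-22b(+) and held in E. coli BL21(DE3). Cells were grown overnight at 37°C or 30°C on LB agar, with or without 25 μg/mL kanamycin, plus 100 μg/mL carbenicillin, 50 μM IPTG and 0.2% rhamnose, and pooled colonies were amplicon-sequenced on an Illumina HiSeq 2500. DiMSum fitness is the error-weighted combination of wild-type-normalised replicate fold changes, kanamycin versus none.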

Row | Sequence | self-splicing fitness (ln) (30 °C) | self-splicing fitness (ln) (37 °C)
1 | CGCGAGCAAUAUUACGUAGA | -3.09 ± 0.15 | -2.93 ± 0.23
2 | CGCGAGCAAUAUUACGUCCA | – | -1.96 ± 0.32
3 | CGCGAGCAAUAUUACGUUCC | -3.49 ± 0.32 | –
4 | CGCUAGCAAUAUUACGACGA | -1.46 ± 0.15 | 0.422 ± 0.16
5 | CGCUAGCAAUAUUACGACGU | -1.86 ± 0.1 | -0.355 ± 0.12
6 | CGCUAGCAAUAUUACGAGGA | -1.5 ± 0.18 | -2.97 ± 0.29
7 | CGCUAGCAAUAUUACGAUAG | -1.9 ± 0.065 | -0.433 ± 0.085
8 | CGCUAGCAAUAUUACGAUCG | -1.17 ± 0.12 | -0.644 ± 0.14
9 | CGCUAGCAAUAUUACGAUUG | -1.18 ± 0.1 | 0.0898 ± 0.13
10 | CGCUAGCAAUAUUACGCACC | -1.98 ± 0.18 | -1 ± 0.23
11 | CGCUAGCAAUAUUACGCACU | -1.27 ± 0.089 | -0.65 ± 0.11
12 | CGCUAGCAAUAUUACGCGUU | -1.99 ± 0.15 | -2.51 ± 0.29
13 | CGCUAGCAAUAUUACGCUCA | -2.4 ± 0.18 | -0.522 ± 0.11
14 | CGCUAGCAAUAUUACGCUGU | – | -2.3 ± 0.19
15 | CGCUAGCAAUAUUACGGUAG | -2.52 ± 0.11 | -2 ± 0.13
16 | CGCUAGCAAUAUUACGUACG | -1.66 ± 0.13 | -1.07 ± 0.13
17 | CGCUAGCAAUAUUACGUAGA | -2.69 ± 0.14 | -1.54 ± 0.19
18 | CGCUAGCAAUAUUACGUGCC | -1.58 ± 0.11 | -0.959 ± 0.15
19 | CGCUAGCAAUAUUACGUGUA | -3.54 ± 0.27 | -1.53 ± 0.13
20 | CGCUAGCAAUAUUACGUUGG | -4 ± 0.23 | -2.24 ± 0.19
21 | CGCUAGCAAUAUUACGUUUC | -2.78 ± 0.17 | -2.23 ± 0.22
22 | CGGAAGCAAUAUUACGACAA | -2.42 ± 0.31 | -2.2 ± 0.33
23 | CGGAAGCAAUAUUACGAUAC | -2.26 ± 0.18 | -2.22 ± 0.21
24 | CGGAAGCAAUAUUACGAUAG | -1.11 ± 0.082 | 0.166 ± 0.1
25 | CGGAAGCAAUAUUACGCAAU | -3 ± 0.26 | -2.69 ± 0.26

Row | Sequence | self-splicing fitness (ln) (30 °C) | self-splicing fitness (ln) (37 °C)
26 | CGGAAGCAAUAUUACGCCCG | -2.86 ± 0.36 | –
27 | CGGAAGCAAUAUUACGCCUA | -1.72 ± 0.21 | -0.963 ± 0.18
28 | CGGAAGCAAUAUUACGCCUG | -1 ± 0.098 | -0.724 ± 0.12
29 | CGGAAGCAAUAUUACGGCGU | -1.96 ± 0.16 | -1.04 ± 0.22
30 | CGGAAGCAAUAUUACGGGAU | -3.67 ± 0.42 | -2.48 ± 0.25
31 | CGGAAGCAAUAUUACGGGGU | -2.39 ± 0.27 | -3.41 ± 0.43
32 | CGGAAGCAAUAUUACGGGUC | -3.78 ± 0.19 | -2.59 ± 0.21
33 | CGGAAGCAAUAUUACGGUAA | -3.11 ± 0.23 | -2.23 ± 0.24
34 | CGGAAGCAAUAUUACGGUAC | -3.17 ± 0.27 | -1.93 ± 0.25
35 | CGGAAGCAAUAUUACGUAUU | -3.43 ± 0.28 | -3.37 ± 0.37
36 | CGGAAGCAAUAUUACGUCUC | -4.07 ± 0.39 | -2.3 ± 0.19
37 | CGGAAGCAAUAUUACGUCUU | -1.67 ± 0.083 | -0.53 ± 0.092
38 | CGGAAGCAAUAUUACGUGUC | -3.44 ± 0.28 | -1.94 ± 0.31
39 | CGGAAGCAAUAUUACGUUAU | -3.02 ± 0.21 | -2.3 ± 0.28
40 | CGGCAGCAAUAUUACGACAA | -1.99 ± 0.1 | -2.28 ± 0.18
41 | CGGCAGCAAUAUUACGACGA | -1 ± 0.11 | -1.41 ± 0.14
42 | CGGCAGCAAUAUUACGACGU | -1.45 ± 0.066 | -0.471 ± 0.071
43 | CGGCAGCAAUAUUACGAUAA | -2.07 ± 0.21 | -1.96 ± 0.34
44 | CGGCAGCAAUAUUACGAUCU | -0.274 ± 0.084 | 0.148 ± 0.11
45 | CGGCAGCAAUAUUACGCACC | -2.89 ± 0.17 | -2.05 ± 0.23
46 | CGGCAGCAAUAUUACGCCCU | -1.01 ± 0.39 | 0.318 ± 0.29
47 | CGGCAGCAAUAUUACGCCUU | -0.474 ± 0.097 | -0.622 ± 0.12
48 | CGGCAGCAAUAUUACGCUGU | -3.8 ± 0.14 | -2.29 ± 0.15
49 | CGGCAGCAAUAUUACGGAUU | -3.9 ± 0.31 | -2.24 ± 0.21
